Measured values reported in patent US7939292B2, “Modified heparinase III and methods of sequencing therewith” (Massachusetts Institute of Technology, priority 2000, dated 2011).

Experiments:
[1] = system: B16BL6 melanoma; assay: Primary tumor growth of B16BL6 melanoma in mice treated with heparinases; type: in vivo
Source text: Heparinases I and III, which have very distinct substrate specificities for cleaving HLGAGs, were employed as tools to investigate the role of HLGAGs in tumor growth and metastasis. While heparinase I cleaves at the highly sulfated regions of HLGAGs, heparinase III only cleaves at the under-sulfated regions of the polysaccharide chain, thereby rendering these enzymes powerful tools to investigate in vivo and in vitro roles of HLGAGs, in development, morphogenesis, angiogenesis etc. To examine the roles of HLGAGs in tumor growth and metastasis, we used B16BL6 melanoma as a model system and treated tumor-bearing mice with either heparinases I or III to investigate both primary tumor growth as well as tumor metastasis. Consistent with the current paradigm, heparinase I accelerated tumor growth (FIG. 8). At a dosage of 0.5 mg/kg/day of heparinase I, tumor growth was increased by about 39%. […] Inhibition of primary tumor growth by heparinase III was first observed at 2 mg/kg per day. Tumor growth was inhibited by 73% at 12 mg/kg per day, the maximum dosage tested in the study (FIG. 8).
Mice, 15 days after tumor implantation with B16BL6 melanoma, were examined. 4×10^5 log growth phase B16BL6 melanoma cells in 0.1 ml PBS were injected to the flank of C57BL/6 mice on day 1. Daily injection of 0.1 ml of PBS, heat inactivated hep III or active heparinase III (2 mg/ml, recombinantly expressed, purified, buffer exchanged with PBS, and concentrated) started at the day 4 and continued throughout the experiment. At day 7, osmotic pumps (100 μl capacity delivering at 0.5 μl per hour) containing PBS or 3 mg/ml hep III were implanted subcutaneously at a place remote from the tumor site. Mice were sacrificed at day 15.
FIG. 8 depicts the tumor volume of the tumors isolated from the mice described above. Tumor volume was measured daily after day 7 with a caliper and calculated with the formula [volume=0.52×(width)^2×(length)].

[2] = system: B16BL6 melanoma cells; assay: Lung metastasis of heparinase treated B16BL6 cells after tail vein injection; type: in vivo, mice; conditions: cells treated 30 min at 37° C. before tail vein injection; 13 days
Procedure: We next investigated the ability of heparinase treated B16BL6 melanoma cells to metastasize to the lungs. B16BL6 cells in log growth phase were briefly trypsinized and resuspended in PBS to a final concentration of 1×10^6 per ml. Prior to injection, cells were treated with either PBS, hep I […] or hep III […] for 30 min. at 37° C. 0.2 ml cell suspensions (2×10^5 cells) were injected slowly via tail vein. Mice were sacrificed 13 days later and lungs were harvested, rinsed with tap water. The number of nodules on lung surface were counted with the assistance of a dissection microscope. * indicates p<0.05 (Mann-Whitney test).

[3] = system: FAK; assay: Activation of FAK in B16BL6 tumor; set-up: species or system mice; conditions: mouse, in vivo
Source text: d. Effect of heparinase treatment on activation of FAK in B16BL6 tumor. The FAK protein was immunoprecipitated with mouse anti-FAK monoclonal antibody (Transduction Laboratories, Lexington, Ky.) according to the procedures described above. The phosphorylated FAK was detected using phosphotyrosine specific antibody RC20.

[4] = system: Lewis lung carcinoma (LLC) tumors; assay: Primary tumor growth of Lewis lung carcinoma (LLC) in mice; type: in vivo; conditions: 12 mg/kg per day
Procedure: To ensure that these observations were not limited to the tumor model chosen, hep III was used to treat mice bearing Lewis lung carcinoma (LLC) tumors. Growth curves of primary tumor growth for LLC tumor in C57BL/6 mice treated with either PBS or heparinase III were plotted. 4×10^5 log phase LLC cells were injected subcutaneously to the flank of mice on day 1. Daily injection of 0.1 ml of either PBS or 2 mg/ml recombinantly expressed heparinase III started at the day 4 and continued throughout the experiment. At day 8, osmotic pumps (100 μl capacity delivering at 0.5 μl per hour) containing PBS or 3 mg/ml hep III were implanted subcutaneously at a place remote from the tumor site. Mice were sacrificed at day 20. Lung metastasis of LLC cells injected through tail vein were quantitated as number of lung nodules. Log growth LLC cells were trypsinized for 30 seconds and resuspended in PBS to a final concentration of 1×10^6 per ml. For experimental group, cells were incubated with […] hep III for 30 minutes at 37° C. before injecting 0.2 ml of cell suspension via tail vein. Mice were euthanized 12 days after tail vein injections, lungs were harvested, rinsed in tap water and fixed overnight in Bouin's solution. The number of nodules on lung surface was counted with the aid of a dissection microscope.

[5] = system: B16BL6 melanoma; assay: Histological examination of tumor samples (apoptosis, TdT labeling); type: in vivo, mice
Procedure: Immunohistochemistry was done as described (Parangi et al., 1996; O'Reilly et al., 1994) with minor modifications. Briefly, tumor tissues were fixed in either 4% (vol/vol) formaldehyde overnight for von Willebrand factor (vWF) staining and terminal deoxynucleotide transferase (TdT) labeling or in Glyo-Fixx solution overnight for Ki-67 nuclear antigen staining. Tissues were embedded in paraffin according to standard histological procedures. For vWF staining, sections (5 μm thick) were incubated with 0.2 N HCl for 10 min. autoclaved in a Coplin jar immersed with Target retrieval Solution (Dako) for 15 min. and permeabilized with 2 μg/ml proteinase K at 37° C. for 15 min. Sections were incubated with rabbit anti-human vWF antibody coupled with horseradish peroxidase (HRP) (Dako). Positive staining was detected by substrate reaction with diaminobenzidine. Sections were counterstained with Gill's hematoxylin and mounted in Permount (Fisher). […] Capillary density was determined by counting the number of vWF-positive capillaries per high power field (HPF, ×200). The proliferative and apoptotic indices of tumor cells within areas of viable tumor were estimated from the percentage of cells scored under a light microscope at 400-fold magnification. A minimum of 2000 cells were counted in each animal. # indicates standard error.

B1: heparinase III: HLGAG degrading enzyme from Flavobacterium heparinum (EC 4.2.2.8), SEQ ID NO:2; cleaves heparan sulfate (protein, listed as Pedobacter heparinus)
chain: MTTKIFKRIIVFAVIALSSGNILAQSSSITRKDFDHINLEYSGLEKVNKAVAAGNYDDAAKALLAYYREKSKAREPDFSNAEKPADIRQPIDKVTREMADKALVHQFQPHKGYGYFDYGKDINWQMWPVKDNEVRWQLHRVKWWQAMALVYHATGDEKYAREWVYQYSDWARKNPLGLSQDNDKFVWRPLEVSDRVQSLPPTFSLFVNSPAFTPAFLMEFLNSYHQQADYLSTHYAEQGNHRLFEAQRNLFAGVSFPEFKDSPRWRQTGISVLNTEIKKQVYADGMQFELSPIYHVAAIDIFLKAYGSAKRVNLEKEFPQSYVQTVENMIMALISISLPDYNTPMFGDSWITDKNFRMAQFASWARVFPANQAIKYFATDGKQGKAPNFLSKALSNAGFYTFRSGWDKNATVMVLKASPPGEFHAQPDNGTFELFIKGRNFTPDAGVFVYSGDEAIMKLRNWYRQTRIHSTLTLDNQNMVITKARQNKWETGNNLDVLTYTNPSYPNLDHQRSVLFINKKYFLVIDRAIGEATGNLGVHWQLKEDSNPVFDKTKNRVYTTYRDGNNLMIQSLNADRTSLNEEEGKVSYVYNKELKRPAFVFEKPKKNAGTQNFVSIVYPYDGQKAPEISIRENKGNDFEKGKLNLTLTINGKQQLVLVP
[1]; 12 mg/kg per day, maximum dosage tested
  inhibition of tumor growth: 73%
[1]; mouse, in vivo
  dosage at which inhibition of primary tumor growth was first observed: 2 mg/kg per day
[1]; nude mice and C57BL/6 mice, subcutaneous injections
  primary tumor growth: significant inhibition in primary tumor growth
[2]
  ability of treated B16BL6 cells to metastasize to the lungs compared to PBS treated cells: significantly less able to metastasize to the lungs
[3]
  FAK activation in tumor: inhibited FAK activation
[4]
  LLC tumor growth: inhibition in tumor growth
[5]
  apoptosis in tumor samples, enzyme treated tumors: increased apoptosis
